Data taken from article PMC8048964 (Angewandte Chemie (International Ed. in English), 2021).

Key:
U2OS cells = test: Live-cell delivery to U2OS cells, confocal laser scanning microscopy; type: cell-based
HeLa cells = test: Live-cell delivery to HeLa cells, CLSM and FiJi image analysis; type: cell-based; settings: CLSM

Substance: TAMRA-SUMO2-cR10D [compound 15]
- signals in lysosomes or endosomes (punctuates) compared to analogue 14 (U2OS cells; 4 μM in PBS, 37 °C, 45 min, CLSM): significantly fewer signals

Substance: TAMRA-Ub(S20C(cR10D))-PA [compound 11]
- live-cell delivery (TAMRA signal, CLSM) (U2OS cells; 2 μM in PBS, two independent sets of experiments (Figure S23)): significantly good

Substance: TAMRA‐Cys(cR10)‐Ub [compound 7]
- endosomal or lysosomal entrapment / cytosolic availability of protein (HeLa cells): cytosolic availability of protein was not improved
